What was measured:
[1] = target: HEK-derived SARS-CoV-2 Wuhan-Hu-1 spike receptor-binding domain (RBDHEK) (SARS-CoV-2 (Wuhan-Hu-1)) (UniProt P0DTC2); assay: mass photometry
[2] = target: monomeric ACE2 (a.a 19-611), C-terminally His-tagged (human) (UniProt Q9BYF1); assay: mass photometry
Sequence of monomeric ACE2 (a.a 19-611), C-terminally His-tagged (human) (Q9BYF1 19-611): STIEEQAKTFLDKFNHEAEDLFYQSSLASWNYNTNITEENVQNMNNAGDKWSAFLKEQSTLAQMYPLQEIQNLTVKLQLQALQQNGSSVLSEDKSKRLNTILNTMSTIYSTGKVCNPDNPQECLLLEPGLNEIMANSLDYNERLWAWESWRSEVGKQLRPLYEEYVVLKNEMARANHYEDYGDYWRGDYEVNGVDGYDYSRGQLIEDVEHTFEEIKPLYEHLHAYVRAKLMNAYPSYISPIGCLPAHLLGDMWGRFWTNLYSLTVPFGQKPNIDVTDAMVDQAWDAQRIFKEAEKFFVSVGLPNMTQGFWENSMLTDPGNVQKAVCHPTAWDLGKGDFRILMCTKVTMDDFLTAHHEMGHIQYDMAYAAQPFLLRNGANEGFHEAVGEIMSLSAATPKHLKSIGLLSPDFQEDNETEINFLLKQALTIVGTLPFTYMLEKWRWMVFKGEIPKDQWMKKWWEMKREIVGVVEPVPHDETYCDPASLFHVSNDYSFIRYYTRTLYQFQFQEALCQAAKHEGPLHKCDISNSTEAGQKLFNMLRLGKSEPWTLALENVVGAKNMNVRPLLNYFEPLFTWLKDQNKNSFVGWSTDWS

HEK-derived SARS-CoV-2 Wuhan-Hu-1 spike receptor-binding domain (RBDHEK) (from UniProt P0DTC2 319-541) (domain or fragment)
percent dimeric species [1]: 19.6% | stoichiometry N [1]: 2 | binding occupancy [2]: 33%

— publication PMC11758712
